Target: GFP-MAP7 (UniProt O88735)
Assay: co-IP; HeLa cells transfected with GFP/GFP-MAP7, HA-KLC2 and HA-KIF5C (WT, ElbowLock, DeltaElbow); GFP-TRAP beads; western blot with anti-GFP and anti-HA

GFP-MAP7, sequence (O88735 whole entry): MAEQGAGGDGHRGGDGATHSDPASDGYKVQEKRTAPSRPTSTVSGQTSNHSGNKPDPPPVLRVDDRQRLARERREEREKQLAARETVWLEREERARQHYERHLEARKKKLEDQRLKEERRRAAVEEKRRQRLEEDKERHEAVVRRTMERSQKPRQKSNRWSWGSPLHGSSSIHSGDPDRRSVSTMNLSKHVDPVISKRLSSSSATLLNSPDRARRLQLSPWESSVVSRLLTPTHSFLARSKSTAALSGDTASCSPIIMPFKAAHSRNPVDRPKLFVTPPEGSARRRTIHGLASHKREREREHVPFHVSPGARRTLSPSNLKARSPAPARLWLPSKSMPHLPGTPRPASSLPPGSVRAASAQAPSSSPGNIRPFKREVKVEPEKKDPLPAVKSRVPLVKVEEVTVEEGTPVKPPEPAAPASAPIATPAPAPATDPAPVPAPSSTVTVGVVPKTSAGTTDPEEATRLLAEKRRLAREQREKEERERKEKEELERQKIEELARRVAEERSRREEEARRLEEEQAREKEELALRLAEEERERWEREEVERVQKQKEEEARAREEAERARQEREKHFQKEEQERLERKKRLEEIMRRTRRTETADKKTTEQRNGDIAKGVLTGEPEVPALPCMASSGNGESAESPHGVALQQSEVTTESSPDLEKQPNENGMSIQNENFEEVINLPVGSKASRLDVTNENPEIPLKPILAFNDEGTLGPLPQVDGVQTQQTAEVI

Question: For “DeltaElbow kinesin-1 complex (HA-KIF5C DeltaElbow / HA-KLC2) (from UniProt P56536 1-955; O88448 1-599)”, which fold increase of kinesin-1 co-precipitated with GFP-MAP7 against wild-type or ElbowLock is on record?
Answer: Its fold increase of kinesin-1 co-precipitated with GFP-MAP7 against wild-type or ElbowLock is 5 fold.

— paper PMC13078783
